According to US20260204353A1 (published 2026):

Tests used:
- [1] = molecular target: T1, - (UniProt Q15116 25-167); experiment: SPR (Biacore T200)
- [2] = molecular target: T1, -; experiment: SPR (Biacore T200); range printed

T1 sequence (Q15116 25-167): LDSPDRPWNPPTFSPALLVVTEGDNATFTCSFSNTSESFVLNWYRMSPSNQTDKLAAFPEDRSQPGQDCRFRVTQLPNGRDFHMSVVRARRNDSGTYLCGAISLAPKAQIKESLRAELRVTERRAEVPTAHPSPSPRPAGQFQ

B1: Variant 7 (scFv, V domains shown)
VH: EVKLLESGGGLVQPGGSLRLSCAASGFTFSSYTMSWVRQAPGKGLEWVSYISHGGGDTYYPDSVKGRFTISRDNSKNTLYLQMNSLRAEDTAVYYCARHSGYERGYYYVMDYWGKGTTVTVSS
VL: DIVMTQSPDSLAVSLGERATINCKSSESVDYYGFSFLNWFQQKPGQPPKLLIYAASNRESGVPDRFSGSGSGTDFTLTISSLQAEDVAVYYCQQSKEVPWTFGQGTKLEIK
How did the Kd (- [1]) turn out when B1 was run?
The Kd was 0.67 nM.

B2: Variant 2 (scFv, V domains shown)
VH: EVQLVESGGGLVQPGGSLRLSCAASGFTFSSYTMSWVRQAPGKGLEWVSYISHGGGDTYYADSVKGRFTISRDNSKNTLYLQMNSLRAEDTAVYYCARHSGYERGYYYVMDYWGQGTLVTVSS
VL: DIVMTQSPDSLAVSLGERATINCKASESVDYYGFSFLNWFQQKPGQPPKLLIYAASNRESGVPDRFSGSGSGTDFTLTISSLQAEDVAVYYCQQSKEVPWTFGQGTKLEIKR
For B2, which Kd (- [2]) is on record?
Its Kd is 2 nM.

B3: Variant 8 (scFv, V domains shown)
VH: EVKLLESGGGLVQPGGSLRLSCAASGFTFSSYTMSWVRQAPGKGLEWVSYISHGGGDTYYPDSVKGRFTISRDNSKNTLYLQMNSLRAEDTAVYYCARHSGYERGYYYVMDYWGKGTTVTVSS
VL: DIVMTQSPDSLAVSLGERATINCKASESVDYYGFSFLNWFQQKPGQPPKLLIYAASNRESGVPDRFSGSGSGTDFTLTISSLQAEDVAVYYCQQSKEVPWTFGQGTKLEIK
B3 was tested. Which Kd (- [1]) did it give?
The Kd was 2.6 nM.

B4: Variant 1 (scFv, V domains shown)
VH: EVQLVESGGGLVQPGGSLRLSCAASGFTFSSYTMSWVRQAPGKGLEWVSYISHGGGDTYYADSVKGRFTISRDNSKNTLYLQMNSLRAEDTAVYYCARHSGYERGYYYVMDYWGQGTLVTVSS
VL: DIVMTQSPDSLAVSLGERATINCKSSESVDYYGFSFLNWFQQKPGQPPKLLIYAASNRESGVPDRFSGSGSGTDFTLTISSLQAEDVAVYYCQQSKEVPWTFGQGTKLEIKR
With B4 as the binder, how does the Kd (- [1]) read?
Its Kd is 5.8 nM.

B5: Variant 4 (scFv, V domains shown)
VH: EVQLVESGGGLVQPGGSLRLSCAASGFTFSSYTMSWVRQAPGKGLEWVSYISHGGGDTYYPDSVKGRFTISRDNSKNTLYLQMNSLRAEDTAVYYCARHSGYERGYYYVMDYWGQGTLVTVSS
VL: DIVMTQSPDSLAVSLGERATINCKSSESVDYYGFSFLNWFQQKPGQPPKLLIYAASNRESGVPDRFSGSGSGTDFTLTISSLQAEDVAVYYCQQSKEVPWTFGQGTKLEIKR
Which Kd (- [1]) does the source give for B5 here?
Its Kd is 3.6 nM.

B6: Variant 5 (scFv, V domains shown)
VH: EVQLVESGGGLVQPGGSLRLSCAASGFTFSSYTMSWVRQAPGKGLEWVSYISHGGGDTYYPDSVKGRFTISRDNSKNTLYLQMNSLRAEDTAVYYCARHSGYERGYYYVMDYWGQGTLVTVSS
VL: DIVMTQSPDSLAVSLGERATINCKASESVDYYGFSFLNWFQQKPGQPPKLLIYAASNRESGVPDRFSGSGSGTDFTLTISSLQAEDVAVYYCQQSKEVPWTFGQGTKLEIKR
B6 was tested. Which Kd (- [1]) did it give?
The Kd was 2.3 nM.

B7: Variant 3 (scFv, V domains shown)
VH: EVQLVESGGGLVQPGGSLRLSCAASGFTFSSYTMSWVRQAPGKGLEWVSYISHGGGDTYYADSVKGRFTISRDNSKNTLYLQMNSLRAEDTAVYYCARHSGYERGYYYVMDYWGQGTLVTVSS
VL: DIQLTQSPDSLSVSLGERATINCKASESVDYYGFSFLNWFQQKPGQPPKLLIYAASNRQSGVPDRFSGSGSGTDFTLTISSLQAEDVAVYFCQQSKEVPWTFGQGTKLEIKR
How did the Kd (- [1]) turn out when B7 was run?
Its Kd is 5.6 nM.

B8: Variant 6 (scFv, V domains shown)
VH: EVQLVESGGGLVQPGGSLRLSCAASGFTFSSYTMSWVRQAPGKGLEWVSYISHGGGDTYYPDSVKGRFTISRDNSKNTLYLQMNSLRAEDTAVYYCARHSGYERGYYYVMDYWGQGTLVTVSS
VL: DIQLTQSPDSLSVSLGERATINCKASESVDYYGFSFLNWFQQKPGQPPKLLIYAASNRQSGVPDRFSGSGSGTDFTLTISSLQAEDVAVYFCQQSKEVPWTFGQGTKLEIKR
With B8 as the binder, how does the Kd (- [1]) read?
Its Kd is 5.8 nM.
